{"source": "paper PMC8938473", "about": "(2022)", "binders": {"B1": {"name": "His6-CRP (natural protein)", "chain": "MALIGKPKPDPTLEWFLSHCHIHKYPAKSTLIHAGEDSDTLYYIVKGSVAVLIKDEEGKEMILSYLNQGDFIGELGLFEEQAERTAWVRAKQACEIAEISYKKFKQLIQVNPEILMKLSAQMAYRLQSTSQKVGNLAFLDVAGRIAQTLLHLAKQPDAMTHPDGMQIKITRQEIGQIVGCSRETVGRILKMLEEQNLIQAHGKTIVVYGTR", "modifications": "labeled with NHS NT-647 dye (in the MST assay only)"}}, "target": "GST-BpfD-In (BpfD intracellular domains) (Shewanella putrefaciens CN32)", "assay": "MST", "data": [{"binder": "B1", "values": [{"measurement": "Kd", "value": 4.9, "unit": "µM"}]}]}
